Experimental data as given in publication doi:10.1101/2021.09.03.458953.
Where two headings read alike, the source gives them in different places.

Key:
[1] = target: Sarbecovirus (SARS-CoV-2 / SARS-CoV) spike C-terminal hepta-peptide, wild type (UniProt P0DTC2); details: pH 7.5; 25°C; 150 mM NaCl
[2] = target: Sarbecovirus (SARS-CoV-2 / SARS-CoV) spike C-terminal hepta-peptide, wild type (UniProt P0DTC2); details: pH 6.5; 25°C; 150 mM NaCl
[3] = target: Sarbecovirus (SARS-CoV-2 / SARS-CoV) spike C-terminal hepta-peptide, wild type (UniProt P0DTC2); details: pH 7.5; 25°C; 150 mM NaCl; remark: listed apart in the source

Coatomer subunit alpha N-terminal WD40 domain (alphaCOPI-WD40) L181K;L185K;I192K;L196K;F197K
kinetic KD [1]: 2750 ± 90 nM
equilibrium KD [2]: 1400 ± 150 nM
equilibrium KD [3]: 4170 ± 40 nM
